Numbering of substitutions follows the chain as printed. Values belong to the binder of their own block, whether it stands above or below them.
What was measured:
[1] = molecular target: T1, Mutant A, Trop-2 extracellular region lacking only domain I, fused to FLAG tag and Fc (human); assay: Western blot, cAR47A6.4.2 as primary antibody, Mutant A in lane 2, non-reducing and reducing SDS-PAGE [b]
T1 construct: Expressed in HEK293F
Method: (§1) Each protein of Trop-2/FLAG/Fc, Mutant A, Mutant B, or Mutant C prepared in this Example 2 was electrophoresed under reducing condition (treatment of samples in the presence of 10 mmol/l DTT at 95° C. for 5 minutes) or non-reducing condition (treatment of samples in the absence of DTT at room temperature for 10 minutes) by an SDS-PAGE method. The proteins in the gel were transferred to polyvinylidene difluoride (PVDF) membrane at 200 mA for 1 hour using a semi-dry method.
(§2) After the blocking of the PVDF membrane was carried out using PBS containing 5% BSA at room temperature for 1 hour, the PVDF membrane was soaked in the primary antibody solution which was prepared with TBST [an aqueous solution which was prepared by diluting Tris buffered saline (10× concentration) (pH 7.4) manufactured by Nakarai Tesque Inc.) ten-fold and further adding 0.1% concentration of 0.05% polyoxyethylene (20) sorbitan monolaurate (manufactured by Wako Pure Chemical Industries, Ltd., equivalent to ICI Inc.'s trademark Tween 20)] comprising 0.1% BSA to react for 1 hour at room temperature or overnight at 4° C.
(§3) Using the imaging system LAS4000 mini (manufactured by Fujifilm), the luminescence images were obtained. […]

[2] = molecular target: T2, Mutant B, Trop-2 extracellular region lacking domain I and domain II, fused to FLAG tag and Fc (human); assay: Western blot, cAR47A6.4.2 as primary antibody, Mutant B in lane 3, non-reducing and reducing SDS-PAGE [b]
T2 construct: Expressed in HEK293F
Method: as §1, §2, §3

[3] = molecular target: T3, Trop-2/FLAG/Fc, fusion protein of Trop-2 extracellular region, FLAG tag and Fc (human); assay: Western blot, cAR47A6.4.2 as primary antibody, Trop-2/FLAG/Fc in lane 1, non-reducing and reducing SDS-PAGE [b]
T3 construct: Expressed in HEK293F; The encoding DNA carries a secretion signal
Method: as §1, §2, §3

[4] = molecular target: T4, recombinant human Trop-2/Fc/His fusion protein (manufactured by R&D) (human, UniProt P09758 27-274, limits assumed); assay: competition binding ELISA on immobilised Trop-2/Fc/His; cAR47A6.4.2 varied, competed antibody MOv16 fixed at 0.3 µg/ml [b]
T4 construct: Bought reagent; also called Trop-2/Fc/His chimeric protein; recombinant Trop-2
T4 sequence: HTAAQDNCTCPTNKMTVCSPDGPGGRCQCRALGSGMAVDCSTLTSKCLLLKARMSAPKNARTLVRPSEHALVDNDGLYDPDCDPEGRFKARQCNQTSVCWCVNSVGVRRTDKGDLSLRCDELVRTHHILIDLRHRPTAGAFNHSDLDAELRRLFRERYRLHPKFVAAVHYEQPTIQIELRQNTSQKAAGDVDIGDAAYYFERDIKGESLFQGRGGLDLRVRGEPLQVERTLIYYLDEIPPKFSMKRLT
Method: (§4) Into a 96-well ELISA plate (manufactured by Greiner), 2 μg/ml of a recombinant human Trop-2/Fc/His chimeric protein (manufactured by R&D) was dispensed at 50 μl/well, and allowed to stand at 4° C. overnight for immobilization. After washing the plate with PBS, BSA-PBS was added thereto at 100 μl/well and allowed to stand at room temperature for 1 hour for blocking the active groups.
(§5) After washing the plate with Tween-PBS, a peroxidase-labeled rabbit anti-human IgG antibody (manufactured by American Qualex) was added at 50 μl/well as the second antibody and allowed to stand at room temperature for 1 hour. After washing the plate with Tween-PBS, the ABTS [2,2-Azino-bis(3-Ethyl benzothiazol-6-Sulfonic Acid)ammonium)] substrate solution [1 mmol/l ABTS, 0.1 mol/l citric acid buffer (pH 4.2), 0.1% H₂O₂] was added at 50 μl/well for color development, and the chromogenic reaction was stopped by adding a 5% SDS (Sodium lauryl sulfate) solution at 50 μl/well. Thereafter, the value of the absorbance of OD415 nm was measured by a plate reader Emax (manufactured by Molecular Devices, LLC.).

[5] = molecular target: T4, recombinant human Trop-2/Fc/His fusion …; assay: competition binding ELISA on immobilised Trop-2/Fc/His; cAR47A6.4.2 varied, competed antibody YY-01 fixed at 0.3 µg/ml [d]
Method: as §4, §5

[6] = molecular target: T4, recombinant human Trop-2/Fc/His fusion …; assay: SPR (Biacore T100), Trop-2/Fc/His captured by Tetra-His antibody, antibody as analyte, Bivalent Analyte model, mean of duplicates
Method: (§6) All the operations described below were carried out using Biacore T100 (manufactured by GE Healthcare Bio-sciences). Tetra-His antibody (manufactured by Qiagen) was immobilized so as to be 12,000 RU (resonance unit) on the CM5 sensor chip (manufactured by GE Healthcare Bio-sciences) using Amine Coupling Kit (manufactured by GE Healthcare Bio-sciences). After recombinant Trop-2/Fc/His fusion proteins (manufactured by R&D) were allowed to be captured on the sensor chip, anti-Trop-2 antibodies which were diluted in five-fold steps, starting from a concentration of 5,000 ng/ml were flowed at 30 μL/min, followed by obtaining sensorgrams at each concentration.
(§7) Using the software for analysis accompanied with the equipment, the results were analyzed based on Bivalent Analyte model to obtain the binding rate constant and the dissociation rate constant for binding of each antibody to a recombinant human Trop-2/Fc/His fusion protein.
(1) Binding Activity of Anti-Trop-2 Human Chimeric Antibody to Recombinant Human Trop-2 using Biacore In the same manner described in Example 3, the affinity of KM4591 and cAR47A6.4.2-P to human Trop-2/Fc/His fusion proteins (manufactured by R&D) were measured. ka, kd, and KD (kd/ka) of each antibody are shown in Table 5 (the mean values of duplicate experiments).

[7] = molecular target: T4, recombinant human Trop-2/Fc/His fusion …; assay: SPR (Biacore T100) on captured Trop-2/Fc/His; summary sentence of Table 6
Method: as §6, §7
(§8) In the same manner described in Example 3(2), the affinity of KM4591 and six kinds of KM4097 humanized antibodies (HV0LV0, HV3aLV0, HV4LV0, HV5LV0, HV10LV2 and HV10LV4) obtained in Example 8 to human Trop-2/Fc/His fusion proteins (manufactured by R&D) were evaluated.

[8] = molecular target: T4, recombinant human Trop-2/Fc/His fusion …; assay: SPR (Biacore T100), Trop-2/Fc/His captured by Tetra-His antibody, antibody as analyte, Bivalent Analyte model, mean of duplicates; remark: listed apart in the source
Method: as §6, §7, §8

[9] = molecular target: T3, Trop-2/FLAG/Fc, fusion protein of …; assay: Western blot, KM4590 as primary antibody, Trop-2/FLAG/Fc in lane 1, non-reducing and reducing SDS-PAGE [a]
Method: as §1, §2, §3

[10] = molecular target: T4, recombinant human Trop-2/Fc/His fusion …; assay: SPR (Biacore T100), Trop-2/Fc/His captured by Tetra-His antibody on CM5 chip, antibody as analyte, Bivalent Analyte model, mean of duplicates
Method: as §6, §7

T1 sequence (chain, as listed by the source mutant limits assumed): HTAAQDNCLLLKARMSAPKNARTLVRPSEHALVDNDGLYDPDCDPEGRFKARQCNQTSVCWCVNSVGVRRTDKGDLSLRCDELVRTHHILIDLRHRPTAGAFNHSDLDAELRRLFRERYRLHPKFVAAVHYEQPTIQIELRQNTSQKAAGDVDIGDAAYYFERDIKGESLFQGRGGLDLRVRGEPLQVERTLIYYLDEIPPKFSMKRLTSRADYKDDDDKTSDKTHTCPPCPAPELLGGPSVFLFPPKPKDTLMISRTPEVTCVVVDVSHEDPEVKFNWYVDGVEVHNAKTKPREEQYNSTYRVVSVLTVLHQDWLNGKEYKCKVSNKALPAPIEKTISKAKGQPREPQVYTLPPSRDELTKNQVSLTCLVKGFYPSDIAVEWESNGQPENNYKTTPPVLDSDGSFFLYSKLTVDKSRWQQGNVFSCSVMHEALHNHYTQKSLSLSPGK
T2 sequence (chain, as listed by the source mutant limits assumed): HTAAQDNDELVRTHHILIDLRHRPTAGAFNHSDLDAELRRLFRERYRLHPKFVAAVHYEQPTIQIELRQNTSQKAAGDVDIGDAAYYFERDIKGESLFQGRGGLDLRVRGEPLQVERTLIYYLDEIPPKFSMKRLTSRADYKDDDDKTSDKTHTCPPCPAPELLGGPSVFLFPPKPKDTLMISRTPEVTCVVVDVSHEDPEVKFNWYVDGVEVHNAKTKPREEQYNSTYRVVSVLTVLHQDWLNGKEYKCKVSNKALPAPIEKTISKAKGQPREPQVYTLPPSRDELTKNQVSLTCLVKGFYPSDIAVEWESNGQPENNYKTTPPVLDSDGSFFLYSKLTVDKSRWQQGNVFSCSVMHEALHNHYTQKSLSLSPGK

B3: KM4097 humanized antibody HV0LV0 (antibody, V domains shown)
VH: QVQLVQSGAEVKKPGASVKVSCKASGYTFTIYWLGWVRQAPGQGLEWMGNIFPGSAYINYNEKFKGRVTITADTSTSTAYMELSSLRSEDTAVYYCAREGSNSGYWGQGTLVTVSS
VL: DIVMTQSPDSLAVSLGERATINCKSSQSLLNSGNQQNYLAWYQQKPGQPPKLLIYGASTRESGVPDRFSGSGSGTDFTLTISSLQAEDVAVYYCQSDHIYPYTFGQGTKLEIK
notes: Expressed from pKANTEX93 (human constant regions) in FUT8 knockout CHO cells; no fucose attached
- Kd [7]: ≤ 1 nM
- Kd [8]: 0.53 nM
- koff [8]: 0.00016 s⁻¹
- kon [8]: 330000 M⁻¹ s⁻¹

B4: KM4097 humanized antibody HV5LV0 (antibody, V domains shown)
VH: B3 VH with R38K, M48I, R67K, V68A, Y95F
VL: B3 VL
notes: as for B3
- Kd [7]: ≤ 0.5 nM
- Kd [8]: 0.49 nM
- koff [8]: 0.00019 s⁻¹
- kon [8]: 383000 M⁻¹ s⁻¹

B5: KM4097 humanized antibody HV3aLV0 (antibody, V domains shown)
VH: B3 VH with A9P, R67K, Y95F
VL: B3 VL
notes: as for B3
- Kd [7]: ≤ 0.5 nM
- Kd [8]: 0.3 nM
- koff [8]: 0.00016 s⁻¹
- kon [8]: 506000 M⁻¹ s⁻¹

B6: KM4097 humanized antibody HV10LV2 (antibody, V domains shown)
VH: B3 VH with A9P, K12V, V20I, R38K, M48I, R67K, V68A, I70L, Y95F, V112L
VL: B3 VL with A19V, L84V
notes: as for B3
- Kd [7]: ≤ 0.5 nM
- Kd [8]: 0.4 nM
- koff [8]: 0.000148 s⁻¹
- kon [8]: 375000 M⁻¹ s⁻¹

B7: KM4097 humanized antibody HV4LV0 (antibody, V domains shown)
VH: B3 VH with A9P, R38K, M48I, Y95F
VL: B3 VL
notes: as for B3
- Kd [7]: ≤ 0.5 nM
- Kd [8]: 0.42 nM
- koff [8]: 0.000126 s⁻¹
- kon [8]: 335000 M⁻¹ s⁻¹

Now from value to binder:

- binding result [1]: binds
- binding result [2]: binds
- binding result [3]: binds
- IC50 (read off the curve) [4]: ~4 µg/mL
- IC50 (read off the curve) [5]: ~3 µg/mL
B1: cAR47A6.4.2, human IgG1 chimeric antibody of anti-Trop-2 mouse monoclonal antibody AR47A6.4.2 (antibody, V domains shown)
VH: QIQLVQSGPELKKPGETVKISCKASGYTFTNYGMNWVKQAPGKGLKWMGWINTKTGEPTYAEEFKGRFAFSLETSASTAYLQINNLKKEDTATYFCGRGGYGSSYWYFDVWGAGTTVTVSS
VL: DIVMTQSHKFMSTSVGDRVSITCKASQDVSIAVAWYQQKPGQSPKVLIYSASYRYTGVPDRFTGSGSGTDFTFTISRVQAEDLAVYYCQQHYITPLTFGAGTKLELK
notes: Variable regions of AR47A6.4.2 with human IgG1 constant region (pKANTEX93), made in CHO/DG44 cells, fucose content 100%

- Kd [6]: 1.01 nM
- koff [6]: 0.000218 s⁻¹
- kon [6]: 221000 M⁻¹ s⁻¹
B2: cAR47A6.4.2-P, defucosylated human IgG1 chimeric antibody of AR47A6.4.2 (antibody, V domains shown)
VH: B1 VH
VL: B1 VL
modifications: No core fucose on the Fc N-glycan (made in FUT8 knockout CHO/DG44 cells); the letters do not carry this.

- binding result [9]: binds
B8: anti-Trop-2 human chimeric antibody KM4590 (antibody, human IgG1, V domains shown)
VH: QVQLQQSGPELVRPGTSVRISCKASGYTFTIYWLGWVKQRPGHGLEWIGNIFPGSAYINYNEKFKGKATLTADTSSSTAYMQLSSLTSEDSAVYFCAREGSNSGYWGQGTTLTVSS
VL: DIVMTQSPSSLSVSAGEKVTMTCKSSQSLLNSGNQQNYLAWYQQKPGQPPKLLIYGASTRESGVPDRFTGSGSGTDFTLTINSVQAEDLAVYYCQSDHIYPYTFGGGTKLEIK
notes: KM4097 variable regions joined to human IgG1 H chain constant region and human kappa L chain constant region (pKANTEX93); made in CHO/DG44 cells, fucose content 100%

- Kd [6]: 0.143 nM
- koff [6]: 5.8e-05 s⁻¹
- kon [6]: 416000 M⁻¹ s⁻¹
- Kd [8]: 0.36 nM
- koff [8]: 0.000113 s⁻¹
- kon [8]: 323000 M⁻¹ s⁻¹
B9: anti-Trop-2 human chimeric antibody KM4591 (antibody, human IgG1, V domains shown)
VH: B8 VH
VL: B8 VL
notes: Same polypeptides as KM4590 (human IgG1, kappa), made in FUT8 knockout CHO/DG44 cells, fucose content 0%

- Kd [10]: 0.261 nM
- koff [10]: 0.000101 s⁻¹
- kon [10]: 389000 M⁻¹ s⁻¹
B10: anti-Trop-2 mouse monoclonal antibody KM4097 (antibody, V domains shown)
VH: B8 VH
VL: B8 VL

- Kd [7]: ≤ 0.5 nM
- Kd [8]: 0.37 nM
- koff [8]: 0.000116 s⁻¹
- kon [8]: 342000 M⁻¹ s⁻¹
B11: KM4097 humanized antibody HV10LV4 (antibody, V domains shown)
VH: B3 VH with A9P, K12V, V20I, R38K, M48I, R67K, V68A, I70L, Y95F, V112L
VL: B3 VL with L15A, A19V, I21M, L84V
notes: as for B3
